Results reported in publication PMC3573117, “Identification of the SlmA Active Site Responsible for Blocking Bacterial Cytokinetic Ring Assembly over the Chromosome” (PLoS Genetics, 2013).

Target: T1, FtsZ(D212N) (UniProt P0A9A6 1-383, D212N)
T1 construct: FtsZ, tubulin-like cell division protein, GTPase-defective derivative D212N; Polymerised with 5 mM GTP in the assay; also called FtsZ(D212N) polymers; FtsZ(D212N) protofilaments
T1 sequence (looked up): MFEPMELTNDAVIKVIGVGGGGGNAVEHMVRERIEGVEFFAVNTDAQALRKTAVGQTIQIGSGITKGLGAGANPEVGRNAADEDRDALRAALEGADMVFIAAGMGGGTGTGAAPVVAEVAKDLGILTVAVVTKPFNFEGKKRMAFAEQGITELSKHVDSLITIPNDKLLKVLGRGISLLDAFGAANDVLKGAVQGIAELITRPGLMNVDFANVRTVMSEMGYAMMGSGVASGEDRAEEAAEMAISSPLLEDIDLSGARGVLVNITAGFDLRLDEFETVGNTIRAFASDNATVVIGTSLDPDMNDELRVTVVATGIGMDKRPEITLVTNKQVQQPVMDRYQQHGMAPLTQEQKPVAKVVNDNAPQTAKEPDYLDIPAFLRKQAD
Experiment: co-sedimentation; FtsZ(D212N) 5 µM with GTP 5 mM, SBS17 DNA 2.5 µM and SlmA derivative 5 µM, room temperature 15 min; 80,000 rpm, TLA100.2 rotor, 15 min; supernatant and pellet on SDS-PAGE, Coomassie
Settings: both partners purified

- binding result: binds
B1: SlmA(WT) (natural protein, Escherichia coli, UniProt P0C093 1-198, looked up)
chain: MAEKQTAKRNRREEILQSLALMLESSDGSQRITTAKLAASVGVSEAALYRHFPSKTRMFDSLIEFIEDSLITRINLILKDEKDTTARLRLIVLLLLGFGERNPGLTRILTGHALMFEQDRLQGRINQLFERIEAQLRQVLREKRMREGEGYTTDETLLASQILAFCEGMLSRFVRSEFKYRPTDDFDARWPLIAAQLQ
notes: SlmA, nucleoid occlusion factor, TetR-like protein of Escherichia coli; Stood in the assay with SBS17 DNA (SlmA-SBS complex); Serves also as the parent for mutation effects seen with the BACTH fusions; also called wild-type SlmA
